Data from the supplement of paper PMC9170038.

What follows are sequences tested on K4 kissing-loop RNA reporter (assay: apparent KD of K4 kissing-loop reporter; higher = weaker reporter binding). Settings: Eterna round: R107; input ligand: FMN 200 uM.
Procedure: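 RNA-MaP round R107: designed RNA switches with theophylline, tryptophan, arginine or FMN aptamers are transcribed on-chip within common flanks. They are titrated with a labelled K4 kissing-loop RNA reporter in RNA-MaP buffer (100 mM Tris pH 7.5, 80 mM KCl, 4 mM MgCl2), without ligand or with the indicated ligand. Median apparent KD per design.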
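Note: bound reporter read as fluorescence of individual clusters on recovered sequencing chips by microscopy, with normalized cluster intensities fitted with a binding model.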

In order of falling “apparent KD of K4 kissing-loop reporter” value:
1. GUGCGCGCGGCGGCCGCCACUCGCAUGAGAGUGAUGUUCUCGGGACUGACGCAAGUCAGUCAUGUGAGGACCGGGCCGGGCUGCG [#2 Same State - Tryptophan B Attempt #12 (HarryS)]  1060 nM
2. UUCGGAUAAGUCCUUCCGAAGAAGCCGGAAGGAGCGACUCAAUAGUCAGGUAGGUCGCCGGCAAGCGUAGUGAUGUUAUGCUCAC [Arg A SS t6]  966 nM
3. AGGGACGAUAGCGAUACCAGAGGUCGCAAAUUCGCGCCGUUUUUUAGGAAGUGAUGUUUUCUCCCUUGGCAGCGCCCUUAGAGUU [theeternabot_exclusion_KL_Theo_B_47]  881 nM
4. ACGACGGCAGCUCAGUGAUGUUGGGCAUUACGAGGACCGGUACGGCCGCCACUCGCUGCUUUGAUCCGUGGAUGAACCUCAGCAU [theeternabot_sameState_KL_Trp_A_13]  576 nM
5. AUGGUGGAUCAGUGAUGUUGGUGGAGUAGGUAGGAUAUGAGUGAUGUUAGAAGGAUCGGAGUGAUGUUCCAGGUGGUUGUGUUGU [KL-SSFMN-A3]  540 nM
6. UUACUGAGUGAUGUUUGGAAAUAUCCUAGGCAGGAUAUGCGGAAACGCAGAAGGGCCACCUUCUAGUGAAGGAAACUUCGCUAUU [Ex FMN A 4]  536 nM
7. AUACGUUUAAGUGAUACCAGACAUGUGAGUGAUGUUUACAAAUAAAUUAAAUUUUUAGCUGUCCCUUGGCAGCACAGUUUAUUUA [JR_ExcTheophyB_Sub002]  516 nM
8. GCCGUAGAUUGAAGGAGCGCCUUCUUACCAAGAGUGAUGUUCUUAGGUACCAUGUUCAGUAGGCAGGUAGGUCGCAAUCUACGGC  499 nM
9. GGGAGCAAAGCUCCCGGAUGCUAUAGUCAGGAGGAUAUCUGGAAACAGAGAAGGCCUAAGCCAGUGAUGUUGGCUAUAAGCAUCC  475 nM
10. UUGUUUGGUUGAGAGGUUGGGCGAGAUGAUACCAGUAUAGAAGAGUACCCUUGGCAGCAUAGGAGAGAUAUAGUGAUGUUGUAUG [SSTheophA.T]  437 nM
11. GCCGUACGCAUGGAUACCAGUCAAGAUCAGUGAUGUUGAUCUUUUAUAGAGCCUUCAUUAGACCCUUGGCAGCCAUGCGUACGGC  429 nM
12. AAAAUAAGCCAGUGAUGUUGGUAUACAGAUACCAGCGACGAAAGUCGCCCUUGGCAGCUGUGGACGUACAAAAUAAGUACGUCCU  364 nM
13. CUUGGAAAGACGGCCGCCACUGGCCAGUGAUGUUGGCCCACCAGGUAAGCCAAGAAGCUUGACGUCAGGACCGGGUCCUAGGAAU [Exclusion TRyptophan B GF 23]  363 nM
14. GCAACAUUGGUAGGAUAUCAUUCUGAGUGAUGUUCAGGGUUCAGCUAACGAAAGUUAGUUGUACCAUGAGAAGGACUAAUGUUGC [Omei KL FMN B SS A v3]  337 nM
15. UAGUCCUAGUGAUGGUCAUCACGUGGUGGGCGAGGACCGGUACGGCCGCCACUCGACUUUGCAGUGAUGUUGCAAACCGGACAAU [Exclusion - Tryptophan A (Freestyle 19)]  333 nM
16. AUUUUCAAUUUAUUAUAUAACUUUUCAGAAGGAGCGUGGAAGUUCACAGGUAGGUCGCUGAAUAUAGGACUAGUGAUGUUAGUUA [JR_Nu_SSArginiA_Sub023]  284 nM
17. AAAUAGAUCAGUCACCCAGUGAUGUUGGAAGGAGCGUGCGAAAGCACAGGUAGGUCGCCAGAAUAAAAUUGGCUGAUCAAAAUAA  260 nM
18. CGGAGUGAUGUUCCGUUAAUUCCUUAGUUACGAGGACCGGUACGGCCGCCACUCGAUUUUAGUUUUAUUUAUUGUUUGGAAAUUU [JR_SSTryptoA_Sub008]  253 nM
19. AGGCCGAGCCAAGGAUAUUGUCAGAGUGAUGUUCGCCAAUACUCCAGCCGCGCCUCAUCAGCUGAGCAAGAAGGUGGUCCUCUCA [theeternabot_exclusion_KL_FMN_B_47]  244 nM
20. UGAUACCAGACGGCCGCCACUCCCGUAAGUCAAAGACUUACGAAGAGAGUUGUCCAGUGAUGUUGGAGGACCGGGUCUGGUAUCU [FiskerMod 13 - Jieux - Exclusion - Tryptophan B]  230 nM
21. CGCGCGCGCGCGCGCGCGCGCGAAAAUGAUACCAGUAUAUAAGAAUACCCUUGGCAGCAUAAGAAAGAUAUAGUGAUGUUGUAUA [SSTheophA.A]  212 nM
22. UCUAACGUUGAGGCGGCAGCGGGCCCAUCUAAGGAUAUCGGUUUACCGAGAAGGUAGUUGGACGAGAGUGAUGUUCUAUUGAGAG [theeternabot_sameState_KL_FMN_A_18]  207 nM
23. UCUGGAGGAUAUGAUACCAGCAGUGAGAGAGAGGAAGUAUAGUGAUGUUAUAUGAGAGAAUGCCCUUGGCAGCGUGUGUAGUGGG [SSTheophylB.L]  175 nM
24. GCCGUAGAUGGAAGGAGCGUGAAUGGCCUCUAUCCAAAGUGAUGUUUUGUUGAAGACUGUUCACAGGUAGGUCGCCAUCUACGGC  165 nM
25. AGCGAGUGAUGUUCGCUGAUCAUGUGAAGUUAGGAUAUAUACUUGCAUAGAAGGAACUAUUACAUGACAUUAGAGGCAGUAGUUC [FMN A SS t7b]  165 nM
26. UGAUAGCCAGUGAUGUUGGCAUAUACUGAAGGAGCGCGUGAAAACGCAGGUAGGUCGCAGUUCCUUGCCAAUUGAUCGAAAGAUC [#08 K4 Arginine A Exclusion]  162 nM
27. GCGCGUCAUGUCAGCGGUGACACUGUCGAUACCAGCGCCGCAAGGCGCCCUUGGCAGCGACGCGCUGGAGUGAUGUUCCAGCGUG [#2 Exclusion - Theophylline A Attempt #14 (HarryS)]  154 nM
28. GAGGUACAGCUGGCCGUCGAAUUGUCCGAUACCAGACACUCUCUAGUCCCUUGGCAGCGGUGGUAAGUGAUGUUUACAGGCGCCG [theeternabot_exclusion_KL_Theo_A_3]  152 nM
29. AAGAAUAAUCUUGCAGUGAUGUUGCAAGAUACCAGCAUCGAAAGAUGCCCUUGGCAGCUUGAAACUGCAAGAAUCAAGCUGAAUA [Design1]  150 nM
30. GUAGACAGACUGCAAGCCUAGUCUACAGACUAGGAUAUCAGGAAACUGAGAAGGAGUCUACUUGCAGUGAUGUUGCAAGAAUAAU [[F]''-[K]'-[F]'-[F1]-[F2]-[K1]-[K2]_Design4]  146 nM
31. ACGAAGGAUGGAAGGAGCGCUCGUCAGUCCUGCGAGUGAUGUUCGUGGGUAAAUAUUCGCGAGCAGGUAGGUCGCCAUCUUGAGC [Soregeor]  144 nM
32. UCCUGCAAUCUGCCACGAAAGUGGAUUGAUACCAGAGUCGAAAGACUCCCUUGGCAGCGAGUGAUGUUCGACGCAGGUAAAUAAA [MatMod 5 - Jieux - Exclusion - Theophylline A]  142 nM
33. UUUUUCGCGUUUGAUACCAGCAGAGUUGUUCGUGUCUGGAGCGUGAGUGAUGUUCAUGUCUGCCCUUGGCAGCAAACGGGAGAAG [KL-XTheo-B14]  137 nM
34. CAUAGUCACUGUGAUACCAGCCCGACUCUUGGCGUCUGCGGUCAAAGCCCAGUGAUGUUGGGCCCUUGGCAGCAUGGCGGCAACA [Xelexebi]  136 nM
35. GCCGUACGCAUGGAUACCAGCUACUAGAGUGAUGUUCUAUGGCCCUGCCAAUGGAGCUGUAGCCCUUGGCAGCCAUGCGUACGGC  130 nM
36. CAUAGGAAACUAUGUUUCUCUCUUACUGAAGGAGCGCGUGAAAACGCAGGUAGGUCGCAGAUUUUGAGAGUGAUGUUCUCAAUAA [Ex Arginine A K4 18]  128 nM
37. GCGCGCGUUUUAGAUACCAGCCAGUGAUGUUGGCGAGGAUUCUGGAGCGUAGUGUCAAAUGGCCCUUGGCAGCUAACACGCGGCU [Zabea]  117 nM
38. GGUAGCAUGGCGGCCGCCACUAAGAGAGUGAUGUUCUCUUAGUUUUUUGAUGUGUUAUCAAUUCUUAGGACCGGGCCAUGCUACC  111 nM
39. UGACAUUGCUCAGAUACCAGACUUGAGGAACACCCAAGUGCCAAACGUACAAUAAUAAAAGUCCCUUGGCAGCUGAGCAAUGUCU [TheoBX 14]  111 nM
40. ACUGAAAGAUCUGAUACCAGACUUUUUGUAUUUAUUAAAACUAGUGAUGUUAGUUUAUCAGUCCCUUGGCAGCAGUUACUACAGA [JR_Nu_ExcTheophyB_Sub024]  91 nM
41. ACACGGAGAGGCAUAACGUGCAUCUUCAGCGAGGAUAUCCAUUACAGGAGAAGGCGCUCCGGAGUGAUGUUCCGGCAAAAGAUAC [Quatatte]  83.5 nM
42. CGGCGUGCCUUAUCCUCAUCUCUGACUCAACGAGGACCGGUACGGCCGCCACUCGGAAGAGGCAGUGAUGUUGCCUACGCCGGUG [Oronat]  76.3 nM
43. GAGAUAGAGGCGGCCGCCACUAGUGAUGUUAGUGAUGUUAGAAAGAGAAUAGAACAGGGAUUAGAUAGGACCGGGCCAGAUGGAG [vvhmullin]  64.4 nM
44. AUGUAUGAAUUAGGAUAUCGUGAGCCUUGCAUAUAUAUGAUAAAUGGAUAUGUCGUAGUGAUGUUACGAGAAGGAGUGUGGAGUA [KL-XFMN-B4]  45 nM

Same assay, conditions: Eterna round: R107; input ligand: arginine 13.2 mM

In order of rising “apparent KD of K4 kissing-loop reporter” value:
1. UGACAUUGCUCAGAUACCAGACUUGAGGAACACCCAAGUGCCAAACGUACAAUAAUAAAAGUCCCUUGGCAGCUGAGCAAUGUCU [TheoBX 14]  53.6 nM
2. GGUAGCAUGGCGGCCGCCACUAAGAGAGUGAUGUUCUCUUAGUUUUUUGAUGUGUUAUCAAUUCUUAGGACCGGGCCAUGCUACC  92.4 nM
3. ACUGAAAGAUCUGAUACCAGACUUUUUGUAUUUAUUAAAACUAGUGAUGUUAGUUUAUCAGUCCCUUGGCAGCAGUUACUACAGA [JR_Nu_ExcTheophyB_Sub024]  106 nM
4. GUAGACAGACUGCAAGCCUAGUCUACAGACUAGGAUAUCAGGAAACUGAGAAGGAGUCUACUUGCAGUGAUGUUGCAAGAAUAAU [[F]''-[K]'-[F]'-[F1]-[F2]-[K1]-[K2]_Design4]  126 nM
5. AAGAAUAAUCUUGCAGUGAUGUUGCAAGAUACCAGCAUCGAAAGAUGCCCUUGGCAGCUUGAAACUGCAAGAAUCAAGCUGAAUA [Design1]  131 nM
6. CAUAGGAAACUAUGUUUCUCUCUUACUGAAGGAGCGCGUGAAAACGCAGGUAGGUCGCAGAUUUUGAGAGUGAUGUUCUCAAUAA [Ex Arginine A K4 18]  167 nM
7. UCUAACGUUGAGGCGGCAGCGGGCCCAUCUAAGGAUAUCGGUUUACCGAGAAGGUAGUUGGACGAGAGUGAUGUUCUAUUGAGAG [theeternabot_sameState_KL_FMN_A_18]  211 nM
8. AUGGUGGAUCAGUGAUGUUGGUGGAGUAGGUAGGAUAUGAGUGAUGUUAGAAGGAUCGGAGUGAUGUUCCAGGUGGUUGUGUUGU [KL-SSFMN-A3]  302 nM
9. GGGAGCAAAGCUCCCGGAUGCUAUAGUCAGGAGGAUAUCUGGAAACAGAGAAGGCCUAAGCCAGUGAUGUUGGCUAUAAGCAUCC  406 nM
10. GCCGUAGAUUGAAGGAGCGCCUUCUUACCAAGAGUGAUGUUCUUAGGUACCAUGUUCAGUAGGCAGGUAGGUCGCAAUCUACGGC  441 nM
11. ACGACGGCAGCUCAGUGAUGUUGGGCAUUACGAGGACCGGUACGGCCGCCACUCGCUGCUUUGAUCCGUGGAUGAACCUCAGCAU [theeternabot_sameState_KL_Trp_A_13]  464 nM
